Molecular target: VEGF165 (UniProt P15692)
Assay: cell-based or functional assay

VEGF165, sequence (P15692 other isoform, or with tags, fused parts or gaps limits assumed): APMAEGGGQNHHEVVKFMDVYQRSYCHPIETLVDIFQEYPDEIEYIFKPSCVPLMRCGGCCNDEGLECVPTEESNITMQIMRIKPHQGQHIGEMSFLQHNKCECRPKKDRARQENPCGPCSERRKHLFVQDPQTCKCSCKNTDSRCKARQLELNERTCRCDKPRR

- HUAEC cell proliferation induced by 2 ng/ml VEGF165 (crystal violet, OD 595 nm): 200 ng/mL
Substance: C-terminal fragment of the NOV protein (amino acids 188 to 357) (from UniProt P48745 188-357)

— US20070059314A1
